Assay results reported in article doi:10.1101/2020.01.14.906479 (bioRxiv, 2020).
Square brackets hold non-standard residues; d marks the D form. Ends that are not written are not given here. pS = N[C@@H](COP(=O)(O)O)C(=O)O

T1: recombinant Plasmodium falciparum 14-3-3I (GST-14-3-3I fusion protein) (P. falciparum 3D7, UniProt C0H4V6 1-262)
T1 sequence (looked up): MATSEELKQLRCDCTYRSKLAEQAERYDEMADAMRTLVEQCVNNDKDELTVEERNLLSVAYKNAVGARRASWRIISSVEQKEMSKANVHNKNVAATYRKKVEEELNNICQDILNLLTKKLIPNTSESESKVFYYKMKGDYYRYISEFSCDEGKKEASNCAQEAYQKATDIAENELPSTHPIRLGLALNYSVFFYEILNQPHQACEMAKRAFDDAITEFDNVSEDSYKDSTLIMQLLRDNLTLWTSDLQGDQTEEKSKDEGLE


Target: T1, recombinant Plasmodium falciparum …
Test: ITC

Binder	Ka [M⁻¹]	dH [kcal/mol]
ARSH[pS]YPA [phosphopeptide 1 (Mode I 14-3-3 recognition motif, ARSHpSYPA)]	1.7e+06	-11.3 ± 4.27
RLYH[pS]LPA [phosphopeptide 2 (Mode II 14-3-3 recognition motif, RLYHpSLPA)]	830000	-1.52 ± 0.096
